# Test results published in the RNAGym collection of RNA variant scans (doi:10.1073/pnas.2313332121).
# B1: TPR t1 (parent)
# chain: GACCAAUCUGCCCUCAGAGCUCGAGAACAUCUUCGGAUGCAGAGGAGGCAGGCUUCGGUGGCGCGAUAGCGCCAACGUCCUCAACCUCCAAUGCAUCCCACCACAUGAUGAUGCCUGAAGAGCCUUGGUUUUUUG
# Variants of: B1
# Test: polymerase ribozyme fitness, log enrichment relative to wild type (log ratio); higher = more active; in vitro selection for triplet polymerase activity
# How it was run: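 After PCR construction and transcription, each subunit's mutant library from a heterodimeric triplet polymerase ribozyme was annealed with a biotinylated primer, the partner subunit and triplets. Incubation was frozen, at −7 °C, and extended constructs were gel-excised, bound to streptavidin beads and amplified by RT-PCR, in one selection round done in triplicate. Fitness is the logarithm of a genotype's enrichment divided by that of the wild type, from inverse-variance-weighted replicate averages of Illumina-sequenced inputs and outputs. The base of the logarithm is 2, and genotypes needed ≥10 input reads and ≥1 read per output.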
row,Variant,polymerase ribozyme fitness (log ratio)
1,GACCAAUCUGCCCUCAGAGCUCGAGAACAUCUUCGGAUGCAGAGGAGGCAUGCUUUGGUGGCGCGAUAGCGCCAACGUCCUCAACCUCCAAUGCAUCCCACCACAUGAUGAUGCCUGAAGAGCCUUGGUUUUUUG [G51U C56U],-2.11
2,GACCAAUCUGCCCUCAGAGCUCGAGAACAUCUUCGGAUGCAGAGGAGGCAUGCUUGGGUGGCGCGAUAGCGCCAACGUCCUCAACCUCCAAUGCAUCCCACCACAUGAUGAUGCCUGAAGAGCCUUGGUUUUUUG [G51U C56G],-5.36
3,GACCAAUCUGCCCUCAGAGCUCGAGAACAUCUUCGGAUGCAGAGGAGGCAUGCUUCGCUGGCGCGAUAGCGCCAACGUCCUCAACCUCCAAUGCAUCCCACCACAUGAUGAUCCCUGAAGAGCCUUGGUUUUUUG [G51U G58C G113C],-5.43
4,GACCAAUCUGCCCUCAGAGCUCGAGAACAUCUUCGGAUGCAGAGGAGGCAUGCUUCGGUGGUGCGAUAGCGCCAACGUCCUCAACCUCCAAUGCAUCCCACCACAUGAUGAUGCCUGAAGAGCCUUGGUUUUUUG [G51U C62U],-3.78
5,GACCAAUCUGCCCUCAGAGCUCGAGAACAUCUUCGGAUGCAGAGGAGGCAUGCUUCGGUGGCGCGAUAGCGCCAACGUCCUCAACCUCCAAUGCAUCCCACCACAUGAUGAUGCUUGAAGAGCCUUGGUUUUUUG [G51U C115U],-4.89
6,GACCAAUCUGCCCUCAGAGCUCGAGAACAUCUUCGGAUGCAGAGGAGGCAUGCUUCGGUGGCGCGAUAGCGCCAACGUCCUCAACCUCCAAUGCAUCCCACCACAUGAUGAUGCCUGAAGAGUCUUGGUUUUUUG [G51U C123U],-2.12
7,GACCAAUCUGCCCUCAGAGCUCGAGAACAUCUUCGGAUGCAGAGGAGGCAUGCUUCGGUGGCGCGAUAGCGCCAACGUCCUCAACCUACAAUGCAUCCCACCACAAGAUGACGCCUGAAGAGCCUUGGUUUUUUG [G51U C88A U106A U112C],-3.27
8,GACCAAUCUGCCCUCAGAGCUCGAGAACAUCUUCGGAUGCAGAGGAGGCAUGCUUCGGUGGCGCGAUAGCGCCAACGUCCUCACCCUACAAUGCAUCCCACCACAUGAUGAUGCCUGAAGCGCCUUGGUUUUUUG [G51U A84C C88A A121C],-1.74
9,GACCAAUCUGCCCUCAGAGCUCGAGAACAUCUUCGGAUGCAGAGGAGGCAUGCUUCGGUUGCGCGAUAGCGCGAACGUCCUCAACCUCCAAUGCAUCCCACCACAUGAUGAUGCCUGAAGAGCCUUGGUUUUUUG [G51U G60U C73G],-2.23
10,GACCAAUCUGCCCUCAGAGCUCGAGAACAUCUUCGGAUGCAGAGGAGGCAUGCUUCGGUGGCGCGAUAGCGCCAACGUCCUCAACCUCCAAUGCAUCCCACCAAAUGAUGAUGCCUGAAGAGCCUUGGUUUUGUG [G51U C104A U133G],-5.02
11,GACCAAUCUGCCCUCAGAGCUCGAGAACAUCUUCGGAUGCAGAGGAGGCAUGCUUCGGUGCCGCGAUAGCGCCAACGUCCUCAACCUCCAAUGCAUCCCACCACAUGAUGAUGCCUCAAGAGCCUUGGUUGUUUG [G51U G61C G117C U131G],-7.34
12,GACCAAUCUGCCCUCAGAGCUCGAGAACAUCUUCGGAUGCAGAGGAGGCAUGCUUCGGUGGCGCGAUAGCGCCAACGUGCUCAACCGCCAAUGCAUCCCACCACAUGAUGAUGCCUGAAGAGCCUUGGUUUUUUG [G51U C79G U87G],-1.09
13,GACCAAUCUGCCCUCAGAGCUCGAGAACAUCUUCGGAUGCAGAGGAGGCAUGCUUCGCUGGCGCGAUAGCGCCAACGUCCUCAACAUCCAAUGCAUCCCACCAUAUGAUGAUGCCUGAAGAGCCUUGGUUUUUUG [G51U G58C C86A C104U],-3.76
14,GACCAAUCUGCCCUCAGAGCUCGAGAACAUCUUCGGAUGCAGAGGAGGCAUGAUUCGGUAGCGCGAUAGCGCCAACGUCCUCAACCUCCAAUGCAUCCCACCACAUGAUGAUGCCUGAAGAGCCUUGGUUUUUUG [G51U C53A G60A],-5.54
15,GACCAAUCUGCCCUCAGAGCUCGAGAACAUCUUCGGAUGCAGAGGAGGCAUGCUUCGGUGGCGCGAUAGCGACAACGUCCUCAACCUCCAAUGCAUCCCACCACAUGAUGAUGCCUGAAGAGCCUUGGUGUUUUG [G51U C72A U130G],-3.04
16,GACCAAUCUGCCCUCAGAGCUCGAGAACAUCUUCGGAUGCAGAGGAGGCAUGCUUCGGUGGCGCGAUCGCGCCAACGUCCUCAACCUCCACUGCAUCCCACCACAUGAUCAUGCCUGAAGAGCCUUGGUUUUUUG [G51U A68C A91C G110C],-7.47
17,GACCAAUCUGCCCUCAGAGCUCGAGAACAUCUUCGGAUGCAGAGGAGGCAUGCUUCAGUGGCGCUAUAGCGCCAACGUCCUCAACCUCCAAUGCAUCCCACCACAUGAUGAUGCCUGAAGUGCCUUGGUUUUUUG [G51U G57A G65U A121U],-7.73
18,GACCAAUCUGCCCUCAGAGCUCGAGAACAUCUUCGGAUGCAGAGGAGGCACGCUUCGGUGGCGCGAUAGCGCCAACGUCCUCAACCUCCAAUGCAUCCCACCACAUGAUGAUGCCUGAAGAGCCUUGGUAUUUUG [G51C U130A],-3.62
19,GACCAAUCUGCCCUCAGAGCUCGAGAACAUCUUCGGAUGCAGAGGAGGCAUGCUUCGGUUGCGCGAUAGCGCCAACGUGCUCAACCUCCAAUGCAUCCCACCACAUGAUGAUGCCUGAAGAGCCUUGGUUUUUUG [G51U G60U C79G],-1.64
20,GACCAAUCUGCCCUCAGAGCUCGAGAACAUCUUCGGAUGCAGAGGAGGCAUGUUUCGGUGGCGCGAUAGCGCCAACGUCCUCAACCUCCAAUGCAUCCCACCACAUGAUGAAGCCUGAGGAGCCUUGGUUUUUUG [G51U C53U U112A A119G],-2.63
21,GACCAAUCUGCCCUCAGAGCUCGAGAACAUCUUCGGAUGCAGAGGAGGCAUGCUUCGGUGGCGCGAUAGCGACAACGUCCUCAACCUCCAAUGCAUCCCACCACAUGAUGAUGCCUGAAGAGCCUUGGUUUUUUG [G51U C72A],-2.55

row,Variant,polymerase ribozyme fitness (log ratio)
1,GACCAAUCUGCCCUCAGAGCUCGAGAACAUCUUCGGAUGCAGAGGAGGCAUGCUUCGGUGGCGCGAUAGCGCCAACGUCCUCAACCUCCAAUGCAUCCCACCACAUGAUGAUGCCUGAAGAGCCUUGGUUUUUUG [G51U],-3.23
2,GACCAAUCUGCCCUCAGAGCUCGAGAACAUCUUCGGAUGCAGAGGAGGCAUGCUUCGGUGGCGCGAUAGCGCCCACGUCCUCAACCUCCAAUGCAUCCCACCACAUGAUGAUGCCUGAAGCGCCUUGGUUUUUUG [G51U A74C A121C],-0.422
3,GACCAAUCUGCCCUCAGAGCUCGAGAACAUCUUCGGAUGCAGAGGAGGCAUGCUUCGGUGGCGCGAUAGCGCCAACGUCCUCAACCUCCAAUGCAUCCCACCACAUGAUGAUGCCUGAAGAGCGUUGGUUUUUUG [G51U C124G],-1.68
4,GACCAAUCUGCCCUCAGAGCUCGAGAACAUCUUCGGAUGCAGAGGAGGCAUGCUUCGGUGGCGCGAUAGCGCCAACGUCCUCAACCUCCAAUGCAUCCCACCACAUGAUGAUGCCUGAAGAGCUUUGGUUUUUUG [G51U C124U],-2.88
5,GACCAAUCUGCCCUCAGAGCUCGAGAACAUCUUCGGAUGCAGAGGAGGCAUGCUUCGGUGGCGCGAUAGCGUCAACGUCCUCAACCUCCAAUGCAUCCCACCACAAGAUGAUGCCUGAAGAGCCUUGGUUUUUUG [G51U C72U U106A],-3.68
6,GACCAAUCUGCCCUCAGAGCUCGAGAACAUCUUCGGAUGCAGAGGAGGCAUGCUUCGGUAGCGCGAUAGCGCCAACGUCCUCAACCUCCAAUGCAUCCCACCACAUGAUGAUGCCUGAAGAGCCUUGGUUUUUUG [G51U G60A],-2.28
7,GACCAAUCUGCCCUCAGAGCUCGAGAACAUCUUCGGAUGCAGAGGAGGCAUGCUUCGGUUGCGCGAUAGCGCCAACGUGCUCAAACUCCAAUGCAUCCCACCACAUGAUGAUGUCUGAAUAGCCUUUGUUUUUUG [G51U G60U C79G C85A C114U G120U G127U],-4.96
8,GACCAAUCUGCCCUCAGAGCUCGAGAACAUCUUCGGAUGCAGAGGAGGCAUGCUUCGGUGGCGCGAUAGCGCGAACGUCCUCAACCUCCAAUGCAUCCCACCACAUGAUGAUGCCUGAAGAGCCUUGGUUUUUUG [G51U C73G],-3.52
9,GACCAAUCUGCCCUCAGAGCUCGAGAACAUCUUCGGAUGCAGAGGAGGCAUGCUUAGGUGGCGCGAUAGCGCCAACGUCCUCAACCUCCAAUGCAUCUUACCACAUGAUGAUGCCUGAAGAGCAUUGGUUGUUUG [G51U C56A C98U C99U C124A U131G],-6.41
10,GACCAAUCUGCCCUCAGAGCUCGAGAACAUCUUCGGAUGCAGAGGAGGCAUGCUUCGGUGGCGCGAUAGCGCCAACGUGCUCAACCUCCAAUGAAUCCCACCACAUGAUGAUGCCUGAAGAGCAUUGGUUUUUUG [G51U C79G C94A C124A],-1.56
11,GACCAAUCUGCCCUCAGAGCUCGAGAACAUCUUCGGAUGCAGAGGAGGCAUCCUUCGGUGGCGCGAUAGCGCCAACGUCCUCAACCUCCAAUGCACCCCACCACAUGAUGAUGCCUGAAGAGCCUUGGUUUUUUG [G51U G52C U96C],-3.75
12,GACCAAUCUGCCCUCAGAGCUCGAGAACAUCUUCGGAUGCAGAGGAGGCAUGCUUCGGUGGCGCGAUAGCGCCAACGUCCUCAACCUCCAAUGCAUCCCAACACAUGAUGAUGCCUGAAGAGCCUUGGUUUUUUG [G51U C101A],-4.55
13,GACCAAUCUGCCCUCAGAGCUCGAGAACAUCUUCGGAUGCAGAGGAGGCAUGCUUCGGUGGCGCGAUAGCGCAAACGUCCUCAACCUCCAAUGCAUCCCACCACAAGAUGAUGCCUGAAGAGCAUAGGAUAUUUG [G51U C73A U106A C124A U126A U129A U131A],-2.8
14,GACCAAUCUGCCCUCAGAGCUCGAGAACAUCUUCGGAUGCAGAGGAGGCAUGCUUCGGUAGCGCGAUAGCGCCAACGUCCUCAACCUCCAAUGCAUCCCACCACAUGAUGAUGCCUGAAGAGUCUUGGUUUUUUG [G51U G60A C123U],-1.47
15,GACCAAUCUGCCCUCAGAGCUCGAGAACAUCUUCGGAUGCAGAGGAGGCAUGCUUCGGUGGCGGGAUAGCGCCAACGUCCUCAACCUCCAAUGCAUCCCACCACAUGAUGAGGCCUGAAGAGCCUUGGUUUUUUG [G51U C64G U112G],-6.95
16,GACCAAUCUGCCCUCAGAGCUCGAGAACAUCUUCGGAUGCAGAGGAGGCAUGCUUCGGUGCCGCGAUAGCGCCAACGUCCUCAACCUCCAAUGCAUCCCACCACAUGAUGAUGCCUGAAGAGCCUUGGUUUUGUG [G51U G61C U133G],-2.81
17,GACCAAUCUGCCCUCAGAGCUCGAGAACAUCUUCGGAUGCAGAGGAGGCAUGCUUAGGUGGUGCGAUAGCGCCAACGUCCUCAACCUCCAAAGCAUCCCAUCACAUGAUGAUGCCUGAAGAGCCUUGGUUUUUUG [G51U C56A C62U U92A C101U],-6.34
18,GACCAAUCUGCCCUCAGAGCUCGAGAACAUCUUCGGAUGCAGAGGAGGCAUGCUUCGGUGGCGCGAUAGCGCCGACGUCCUCAACCUCCAAUGCAUCCCACCACAUGAUGAUGCCUGAAGAGCCUUGGUUUUUUG [G51U A74G],-2.72
19,GACCAAUCUGCCCUCAGAGCUCGAGAACAUCUUCGGAUGCAGAGGAGGCAUGCUUCGGUGGCGCGAUAGCGCCAACGUCCUCAACCUCCAAUGCAUCCCAUCACAUGAUGAUGCCUGAAUAGCCUUGGUUUUUUG [G51U C101U G120U],-4.49
20,GACCAAUCUGCCCUCAGAGCUCGAGAACAUCUUCGGAUGCAGAGGAGGCAUACUUCGGUGGCGCGAUAGCGCCAACGUACUCAACCUCCAAUGCAUCCCACCACAUGAUGAUGCCUGAAGAGCCUUGGUUUUUUG [G51U G52A C79A],-5.44
21,GACCAAUCUGCCCUCAGAGCUCGAGAACAUCUUCGGAUGCAGAGGAGGCACGCUUCGGUGGCGCGAUAGCGCCAACGUCCUCAACCUCCAAUGCAUCCCACCACAUGAUGACGCCUGAAGAGCCUUGGUUUUUUG [G51C U112C],-1.34
